Numbered stars: 1 amine (or outer) side, 2 acyl side, 3 side chain; on linkers, the order of the positions; unused ones are H or OH. Bridge positions count the residues as written; N and C are the ends. Side chains are listed from the residue outwards. Ends that are not written are not given here. * marks the point of attachment. C20 diacid = O=C(O)CCCCCCCCCCCCCCCCCCC(=O)*; γGlu = O=C(O)[C@H](CCC(=O)[*:2])N[*:1]; AEEA = NCCOCCOCC(=O)O
T1: human amylin receptor (amylin 3(a) receptor: human calcitonin receptor co-expressed with RAMP-3) (human, UniProt P30988 25-474; O60896 24-148, limits assumed)
T1 sequence (looked up) 1: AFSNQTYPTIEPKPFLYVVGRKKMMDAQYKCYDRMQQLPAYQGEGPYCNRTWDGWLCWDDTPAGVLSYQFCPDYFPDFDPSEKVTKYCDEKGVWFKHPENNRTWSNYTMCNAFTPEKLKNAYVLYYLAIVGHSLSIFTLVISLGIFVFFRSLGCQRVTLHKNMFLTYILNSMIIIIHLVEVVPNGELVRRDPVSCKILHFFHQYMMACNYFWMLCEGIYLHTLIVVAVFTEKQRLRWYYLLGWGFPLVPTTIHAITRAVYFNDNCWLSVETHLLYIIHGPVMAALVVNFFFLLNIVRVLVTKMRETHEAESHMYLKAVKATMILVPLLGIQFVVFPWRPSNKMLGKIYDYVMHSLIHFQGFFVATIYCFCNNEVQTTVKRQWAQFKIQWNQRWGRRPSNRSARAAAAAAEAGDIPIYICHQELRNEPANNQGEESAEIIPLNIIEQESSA
T1 sequence (looked up) 2: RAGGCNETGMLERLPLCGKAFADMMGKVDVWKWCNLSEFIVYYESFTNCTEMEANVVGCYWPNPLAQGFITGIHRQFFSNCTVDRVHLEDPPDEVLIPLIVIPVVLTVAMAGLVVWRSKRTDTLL

T2: human calcitonin receptor (human, UniProt P30988 25-474)
T2 sequence (looked up): T1 sequence (looked up) 1

B1: N^ε1-[2-[2-[2-[[2-[2-[2-[[(4S)-4-carboxy-4-(19-carboxynonadecanoylamino)butanoyl]amino]ethoxy]ethoxy]acetyl]amino]ethoxy]ethoxy]acetyl]-[Arg17,Pro21,Pro27,Arg34 … (peptide)
peptide: K([AEEA-AEEA-γGlu-C20 diacid])CNTATCATQRLANFLRHSSPNFGAIPSSTNVGRNTY-NH2
modifications: disulfide 2-7; N-terminus assumed
SMILES: CC[C@H](C)[C@H](NC(=O)[C@H](C)NC(=O)CNC(=O)[C@H](Cc1ccccc1)NC(=O)[C@H](CC(N)=O)NC(=O)[C@@H]1CCCN1C(=O)[C@H](CO)NC(=O)[C@H](CO)NC(=O)[C@H](Cc1c[nH]cn1)NC(=O)[C@H](CCCNC(=N)N)NC(=O)[C@H](CC(C)C)NC(=O)[C@H](Cc1ccccc1)NC(=O)[C@H](CC(N)=O)NC(=O)[C@H](C)NC(=O)[C@H](CC(C)C)NC(=O)[C@H](CCCNC(=N)N)NC(=O)[C@H](CCC(N)=O)NC(=O)[C@@H](NC(=O)[C@H](C)NC(=O)[C@@H]1CSSC[C@H](NC(=O)[C@@H](N)CCCCNC(=O)COCCOCCNC(=O)COCCOCCNC(=O)CC[C@H](NC(=O)CCCCCCCCCCCCCCCCCCC(=O)O)C(=O)O)C(=O)N[C@@H](CC(N)=O)C(=O)N[C@@H]([C@@H](C)O)C(=O)N[C@@H](C)C(=O)N[C@@H]([C@@H](C)O)C(=O)N1)[C@@H](C)O)C(=O)N1CCC[C@H]1C(=O)N[C@@H](CO)C(=O)N[C@@H](CO)C(=O)N[C@H](C(=O)N[C@@H](CC(N)=O)C(=O)N[C@H](C(=O)NCC(=O)N[C@@H](CCCNC(=N)N)C(=O)N[C@@H](CC(N)=O)C(=O)N[C@H](C(=O)N[C@@H](Cc1ccc(O)cc1)C(N)=O)[C@@H](C)O)C(C)C)[C@@H](C)O
notes: also called compound 95
B2: N^ε1-[2-[2-[2-[[(4S)-4-carboxy-4-(19-carboxynonadecanoylamino)butanoyl]amino]ethoxy]ethoxy]acetyl]-[Arg14,Arg17,Pro21,Pro27,Pro31]-h-amylin (peptide)
peptide: K([AEEA-γGlu-C20 diacid])CNTATCATQRLARFLRHSSPNFGAIPSSTPVGSNTY-NH2
modifications: disulfide 2-7; N-terminus assumed
SMILES: CC[C@H](C)[C@H](NC(=O)[C@H](C)NC(=O)CNC(=O)[C@H](Cc1ccccc1)NC(=O)[C@H](CC(N)=O)NC(=O)[C@@H]1CCCN1C(=O)[C@H](CO)NC(=O)[C@H](CO)NC(=O)[C@H](Cc1c[nH]cn1)NC(=O)[C@H](CCCNC(=N)N)NC(=O)[C@H](CC(C)C)NC(=O)[C@H](Cc1ccccc1)NC(=O)[C@H](CCCNC(=N)N)NC(=O)[C@H](C)NC(=O)[C@H](CC(C)C)NC(=O)[C@H](CCCNC(=N)N)NC(=O)[C@H](CCC(N)=O)NC(=O)[C@@H](NC(=O)[C@H](C)NC(=O)[C@@H]1CSSC[C@H](NC(=O)[C@@H](N)CCCCNC(=O)COCCOCCNC(=O)CC[C@H](NC(=O)CCCCCCCCCCCCCCCCCCC(=O)O)C(=O)O)C(=O)N[C@@H](CC(N)=O)C(=O)N[C@@H]([C@@H](C)O)C(=O)N[C@@H](C)C(=O)N[C@@H]([C@@H](C)O)C(=O)N1)[C@@H](C)O)C(=O)N1CCC[C@H]1C(=O)N[C@@H](CO)C(=O)N[C@@H](CO)C(=O)N[C@H](C(=O)N1CCC[C@H]1C(=O)N[C@H](C(=O)NCC(=O)N[C@@H](CO)C(=O)N[C@@H](CC(N)=O)C(=O)N[C@H](C(=O)N[C@@H](Cc1ccc(O)cc1)C(N)=O)[C@@H](C)O)C(C)C)[C@@H](C)O
notes: also called compound 64
B3: N^ε1-[2-[2-[2-[[2-[2-[2-[[(4S)-4-carboxy-4-(19-carboxynonadecanoylamino)butanoyl]amino]ethoxy]ethoxy]acetyl]amino]ethoxy]ethoxy]acetyl]-[Arg17,Pro21,Pro27,Pro31 … (peptide)
peptide: K([AEEA-AEEA-γGlu-C20 diacid])CNTATCATQRLANFLRHSSPNFGAIPSSTPVGSNTY-NH2
modifications: disulfide 2-7; N-terminus assumed
SMILES: CC[C@H](C)[C@H](NC(=O)[C@H](C)NC(=O)CNC(=O)[C@H](Cc1ccccc1)NC(=O)[C@H](CC(N)=O)NC(=O)[C@@H]1CCCN1C(=O)[C@H](CO)NC(=O)[C@H](CO)NC(=O)[C@H](Cc1c[nH]cn1)NC(=O)[C@H](CCCNC(=N)N)NC(=O)[C@H](CC(C)C)NC(=O)[C@H](Cc1ccccc1)NC(=O)[C@H](CC(N)=O)NC(=O)[C@H](C)NC(=O)[C@H](CC(C)C)NC(=O)[C@H](CCCNC(=N)N)NC(=O)[C@H](CCC(N)=O)NC(=O)[C@@H](NC(=O)[C@H](C)NC(=O)[C@@H]1CSSC[C@H](NC(=O)[C@@H](N)CCCCNC(=O)COCCOCCNC(=O)COCCOCCNC(=O)CC[C@H](NC(=O)CCCCCCCCCCCCCCCCCCC(=O)O)C(=O)O)C(=O)N[C@@H](CC(N)=O)C(=O)N[C@@H]([C@@H](C)O)C(=O)N[C@@H](C)C(=O)N[C@@H]([C@@H](C)O)C(=O)N1)[C@@H](C)O)C(=O)N1CCC[C@H]1C(=O)N[C@@H](CO)C(=O)N[C@@H](CO)C(=O)N[C@H](C(=O)N1CCC[C@H]1C(=O)N[C@H](C(=O)NCC(=O)N[C@@H](CO)C(=O)N[C@@H](CC(N)=O)C(=O)N[C@H](C(=O)N[C@@H](Cc1ccc(O)cc1)C(N)=O)[C@@H](C)O)C(C)C)[C@@H](C)O
notes: also called compound 96
B4: N^ε1-[2-[2-[2-[[(4S)-4-carboxy-4-(19-carboxynonadecanoylamino)butanoyl]amino]ethoxy]ethoxy]acetyl]-[Arg14,Arg17,Pro21,Pro27]-h-amylin (peptide)
peptide: K([AEEA-γGlu-C20 diacid])CNTATCATQRLARFLRHSSPNFGAIPSSTNVGSNTY-NH2
modifications: disulfide 2-7; N-terminus assumed
SMILES: CC[C@H](C)[C@H](NC(=O)[C@H](C)NC(=O)CNC(=O)[C@H](Cc1ccccc1)NC(=O)[C@H](CC(N)=O)NC(=O)[C@@H]1CCCN1C(=O)[C@H](CO)NC(=O)[C@H](CO)NC(=O)[C@H](Cc1c[nH]cn1)NC(=O)[C@H](CCCNC(=N)N)NC(=O)[C@H](CC(C)C)NC(=O)[C@H](Cc1ccccc1)NC(=O)[C@H](CCCNC(=N)N)NC(=O)[C@H](C)NC(=O)[C@H](CC(C)C)NC(=O)[C@H](CCCNC(=N)N)NC(=O)[C@H](CCC(N)=O)NC(=O)[C@@H](NC(=O)[C@H](C)NC(=O)[C@@H]1CSSC[C@H](NC(=O)[C@@H](N)CCCCNC(=O)COCCOCCNC(=O)CC[C@H](NC(=O)CCCCCCCCCCCCCCCCCCC(=O)O)C(=O)O)C(=O)N[C@@H](CC(N)=O)C(=O)N[C@@H]([C@@H](C)O)C(=O)N[C@@H](C)C(=O)N[C@@H]([C@@H](C)O)C(=O)N1)[C@@H](C)O)C(=O)N1CCC[C@H]1C(=O)N[C@@H](CO)C(=O)N[C@@H](CO)C(=O)N[C@H](C(=O)N[C@@H](CC(N)=O)C(=O)N[C@H](C(=O)NCC(=O)N[C@@H](CO)C(=O)N[C@@H](CC(N)=O)C(=O)N[C@H](C(=O)N[C@@H](Cc1ccc(O)cc1)C(N)=O)[C@@H](C)O)C(C)C)[C@@H](C)O
notes: also called compound 82
B5: N^ε1-[2-[2-[2-[[(4S)-4-carboxy-4-(19-carboxynonadecanoylamino)butanoyl]amino]ethoxy]ethoxy]acetyl]-[Arg17,Pro21,Pro27,Arg34]-h-amylin (peptide)
peptide: K([AEEA-γGlu-C20 diacid])CNTATCATQRLANFLRHSSPNFGAIPSSTNVGRNTY-NH2
modifications: disulfide 2-7; N-terminus assumed
SMILES: CC[C@H](C)[C@H](NC(=O)[C@H](C)NC(=O)CNC(=O)[C@H](Cc1ccccc1)NC(=O)[C@H](CC(N)=O)NC(=O)[C@@H]1CCCN1C(=O)[C@H](CO)NC(=O)[C@H](CO)NC(=O)[C@H](Cc1c[nH]cn1)NC(=O)[C@H](CCCNC(=N)N)NC(=O)[C@H](CC(C)C)NC(=O)[C@H](Cc1ccccc1)NC(=O)[C@H](CC(N)=O)NC(=O)[C@H](C)NC(=O)[C@H](CC(C)C)NC(=O)[C@H](CCCNC(=N)N)NC(=O)[C@H](CCC(N)=O)NC(=O)[C@@H](NC(=O)[C@H](C)NC(=O)[C@@H]1CSSC[C@H](NC(=O)[C@@H](N)CCCCNC(=O)COCCOCCNC(=O)CC[C@H](NC(=O)CCCCCCCCCCCCCCCCCCC(=O)O)C(=O)O)C(=O)N[C@@H](CC(N)=O)C(=O)N[C@@H]([C@@H](C)O)C(=O)N[C@@H](C)C(=O)N[C@@H]([C@@H](C)O)C(=O)N1)[C@@H](C)O)C(=O)N1CCC[C@H]1C(=O)N[C@@H](CO)C(=O)N[C@@H](CO)C(=O)N[C@H](C(=O)N[C@@H](CC(N)=O)C(=O)N[C@H](C(=O)NCC(=O)N[C@@H](CCCNC(=N)N)C(=O)N[C@@H](CC(N)=O)C(=O)N[C@H](C(=O)N[C@@H](Cc1ccc(O)cc1)C(N)=O)[C@@H](C)O)C(C)C)[C@@H](C)O
notes: also called compound 78
B6: N^ε1-[2-[2-[2-[[(4S)-4-carboxy-4-(19-carboxynonadecanoylamino)butanoyl]amino]ethoxy]ethoxy]acetyl]-[Ala14,Arg17,Pro21,Pro27,Pro31]-h-amylin (peptide)
peptide: K([AEEA-γGlu-C20 diacid])CNTATCATQRLAAFLRHSSPNFGAIPSSTPVGSNTY-NH2
modifications: disulfide 2-7; N-terminus assumed
SMILES: CC[C@H](C)[C@H](NC(=O)[C@H](C)NC(=O)CNC(=O)[C@H](Cc1ccccc1)NC(=O)[C@H](CC(N)=O)NC(=O)[C@@H]1CCCN1C(=O)[C@H](CO)NC(=O)[C@H](CO)NC(=O)[C@H](Cc1c[nH]cn1)NC(=O)[C@H](CCCNC(=N)N)NC(=O)[C@H](CC(C)C)NC(=O)[C@H](Cc1ccccc1)NC(=O)[C@H](C)NC(=O)[C@H](C)NC(=O)[C@H](CC(C)C)NC(=O)[C@H](CCCNC(=N)N)NC(=O)[C@H](CCC(N)=O)NC(=O)[C@@H](NC(=O)[C@H](C)NC(=O)[C@@H]1CSSC[C@H](NC(=O)[C@@H](N)CCCCNC(=O)COCCOCCNC(=O)CC[C@H](NC(=O)CCCCCCCCCCCCCCCCCCC(=O)O)C(=O)O)C(=O)N[C@@H](CC(N)=O)C(=O)N[C@@H]([C@@H](C)O)C(=O)N[C@@H](C)C(=O)N[C@@H]([C@@H](C)O)C(=O)N1)[C@@H](C)O)C(=O)N1CCC[C@H]1C(=O)N[C@@H](CO)C(=O)N[C@@H](CO)C(=O)N[C@H](C(=O)N1CCC[C@H]1C(=O)N[C@H](C(=O)NCC(=O)N[C@@H](CO)C(=O)N[C@@H](CC(N)=O)C(=O)N[C@H](C(=O)N[C@@H](Cc1ccc(O)cc1)C(N)=O)[C@@H](C)O)C(C)C)[C@@H](C)O
notes: also called compound 72

target: T1, human amylin receptor (amylin 3(a) …); assay: cell-based or functional assay

Row | Binder | hAmylin-R funct. EC50 [pM] | Ratio hCT/hAmylin funct.
1 | B1 | 651 | 
2 | B2 | 378 | 
3 | B3 | 181 | 
4 | B4 | 215 | 59.2
5 | B5 | 316 | 
6 | B6 | 106 | 

target: T2, human calcitonin receptor; assay: cell-based or functional assay

Row | Binder | hCTR funct. EC50 [nM]
7 | B1 | 21.5
8 | B2 | 22.9
9 | B3 | 3.8
10 | B4 | 12.7
11 | B5 | 8.17
12 | B6 | 4.76
